According to patent US20220073646A1 (Hoffmann-La Roche, published 2022):
One block for each binder: values may come before it.

Key:
[1] = molecular target: T1, human GITR on HEK cells (HEK-GITR) (human, UniProt Q9Y5U5 26-241); experiment: flow cytometry, HEK-GITR
T1 construct: also called cell surface expressed human GITR
T1 sequence: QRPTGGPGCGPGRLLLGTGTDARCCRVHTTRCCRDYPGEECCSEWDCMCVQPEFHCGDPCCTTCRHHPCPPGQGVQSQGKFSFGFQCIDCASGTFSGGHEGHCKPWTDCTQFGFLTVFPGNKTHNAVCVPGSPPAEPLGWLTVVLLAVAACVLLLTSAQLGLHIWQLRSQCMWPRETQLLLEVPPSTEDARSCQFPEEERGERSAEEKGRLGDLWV
Protocol: Cells were washed twice with complete media and once with PBS+2% FBS before adjusting cell density to 1×10⁷ cells/mL in PBS+2% FBS.
Plates were centrifuged at 4° C., 3 minutes at 600×g and supernatant was flicked off. Cells were resuspended in 50 μL/well of 4° C. cold PBS+2% FBS containing titrated anti-GITR antibody constructs for 120 minutes at 4° C. Plates were washed twice with 200 μL/well 4° C. PBS+2% FBS to remove unbound construct. […] Plates were centrifuged at 4° C. for 3 minutes at 600×g and washed twice with PBS+2% FBS. […] Plates were centrifuged at 4° C., 3 minutes at 600×g and supernatant was flicked off.

[2] = molecular target: recombinant cynomolgus 4-1BB Fc(kih) (cynomolgus, UniProt P0DOX5 223-449 = IgG part, biotin on C-terminal Avi tag where used biotinylated); experiment: SPR, captured IgG, cyno 4-1BB Fc(kih) analyte
Protocol: (§1) All SPR experiments were performed on a Biacore T200 at 25° C. with HBS-EP as running buffer (0.01 M HEPES pH 7.4, 0.15 M NaCl, 3 mM EDTA, 0.005% Surfactant P20, Biacore, Freiburg/Germany).
Anti-human Fab antibody (Biacore, Freiburg/Germany) was directly coupled on a CM5 chip at pH 5.0 using the standard amine coupling kit (Biacore, Freiburg/Germany). The immobilization level was approximately 9000 RU.

[3] = molecular target: mouse 4-1BB on activated mouse splenocytes (mouse, UniProt P20334 24-256); experiment: flow cytometry, activated mouse T cells
Sequence of mouse 4-1BB on activated mouse splenocytes (P20334 24-256 limits assumed): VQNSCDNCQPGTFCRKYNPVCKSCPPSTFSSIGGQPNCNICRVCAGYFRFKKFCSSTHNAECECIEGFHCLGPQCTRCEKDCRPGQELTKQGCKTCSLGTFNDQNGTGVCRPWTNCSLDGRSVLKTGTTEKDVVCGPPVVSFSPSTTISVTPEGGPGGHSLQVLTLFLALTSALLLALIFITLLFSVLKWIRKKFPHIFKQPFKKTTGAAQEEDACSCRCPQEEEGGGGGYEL
Protocol: Cells were incubated for 30 min at 4° C., washed twice with 200 μL/well FACS-buffer and resuspended for fixation with 50 μL/well DPBS containing 1% (v/v) formaldehyde. The next day cells were resuspended in 200 μL/well FACS buffer and acquired using the 2-laser Cantoll (BD Bioscience with DIVA software) or 5-laser Fortessa (BD Bioscience with DIVA software). Gates were set on CD8⁺ and CD4⁺ T cells and the median fluorescence intensity (MFI) of the secondary detection antibody was used to analyze binding of primary antibodies. Using Graph Pad Prism (Graph Pad Software Inc.) data was baselined by subtracting the blank values (no primary antibody added) and the EC₅₀ values were calculated using non-linear regression curve fit (robust fit).

[4] = molecular target: T2, cynomolgus 4-1BB on activated cynomolgus PBMC (cynomolgus, UniProt Q07011 24-255 (human entry)); experiment: flow cytometry, activated cynomolgus CD8 T cells
T2 chain: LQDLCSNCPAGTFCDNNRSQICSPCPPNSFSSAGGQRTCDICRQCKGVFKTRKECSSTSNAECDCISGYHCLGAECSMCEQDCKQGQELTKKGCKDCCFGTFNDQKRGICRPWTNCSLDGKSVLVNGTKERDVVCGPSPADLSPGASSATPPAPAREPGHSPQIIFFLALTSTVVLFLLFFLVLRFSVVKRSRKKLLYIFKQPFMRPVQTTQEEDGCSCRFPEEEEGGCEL
Protocol: (§2) Cells were washed twice with FACS buffer and resuspended in 100 μL/well FACS buffer supplied with 0.2 μg/mL DAPI to discriminated dead from living cells. Cells were immediately acquired using a 5-laser Fortessa (BD Bioscience with DIVA software). Gates were set on CD8⁺ and CD4⁺ T cells and the median fluorescence intensity (MFI) of the secondary detection antibody was used to analyze binding of primary antibodies. Using Graph Pad Prism (Graph Pad Software Inc.) data was baselined by subtracting the blank values (no primary antibody added) and the EC₅₀ values were calculated using non-linear regression curve fit (robust fit).

[5] = molecular target: T3, human 4-1BB on cells (human, UniProt Q07011 24-255); experiment: cell-based or functional assay
[6] = molecular target: T4, recombinant human 4-1BB Fc(kih) (human, UniProt P0DOX5 223-449 = IgG part, biotin on C-terminal Avi tag where used biotinylated); experiment: SPR, captured IgG, 4-1BB Fc(kih) analyte
T4 construct: also called hu4-1BB; biotinylated human 4-1BB
Protocol: as §1
Anti-human Fab antibody (Biacore, Freiburg/Germany) was directly coupled on a CM5 chip at pH 5.0 using the standard amine coupling kit (Biacore, Freiburg/Germany). The immobilization level was approximately 7500 RU. […] The dissociation was monitored for 120 seconds. Bulk refractive index differences were corrected for by subtracting the response obtained on reference flow cell.

[7] = molecular target: T3, human 4-1BB on cells; experiment: flow cytometry, activated human CD8 T cells
Protocol: Plates were centrifuged 4 minutes with 400×g at 4° C. and supernatant was discarded. […] Afterwards cells were washed once with 200 μL/well cold FACS buffer (DPBS supplied with 2% (v/v) FBS, 5 mM EDTA pH8 (Amresco, Cat. No. E177) and 7.5 mM sodium azide (Sigma-Aldrich S2002)). […] Cells were washed four times with 200 μL/well 4° C.
Cells were washed twice with 200 μL FACS buffer/well and fixated by resuspending in 50 μL/well DPBS containing 1% Formaldehyde (Sigma, HT501320-9.5L). Cells were acquired the same or next day using a 3-laser Canto II (BD Bioscience with DIVA software) or a 5-laser Fortessa (BD Bioscience with DIVA software) or 3-laser MACSQuant Analyzer 10 (Miltenyi Biotech). Gates were set on CD8⁺ and CD4⁺ T cells and the median fluorescence intensity (MFI) or geo mean of fluorescence intensity of the secondary detection antibody was used to analyze binding of primary antibodies. Using Graph Pad Prism (Graph Pad Software Inc.) data was baselined by subtracting the blank values (no primary antibody added) and the EC50 values were calculated using non-linear regression curve fit (robust fit).

[8] = molecular target: T2, cynomolgus 4-1BB on activated …; experiment: flow cytometry, activated cynomolgus CD4 T cells
Protocol: as §2

[9] = molecular target: T3, human 4-1BB on cells; experiment: cell-based or functional assay; remark: listed apart in the source
[10] = molecular target: T5, human fibroblast activation protein (huFAP) on cells (human, UniProt Q12884 1-760); experiment: flow cytometry, WM266-4
T5 construct: also called NIH/3T3-huFAP clone 39; NIH/3T3-huFAP clone 19

[11] = molecular target: T6, human OX40 on cells (human, UniProt P43489 29-277); experiment: flow cytometry, activated human CD4 T cells
T6 sequence: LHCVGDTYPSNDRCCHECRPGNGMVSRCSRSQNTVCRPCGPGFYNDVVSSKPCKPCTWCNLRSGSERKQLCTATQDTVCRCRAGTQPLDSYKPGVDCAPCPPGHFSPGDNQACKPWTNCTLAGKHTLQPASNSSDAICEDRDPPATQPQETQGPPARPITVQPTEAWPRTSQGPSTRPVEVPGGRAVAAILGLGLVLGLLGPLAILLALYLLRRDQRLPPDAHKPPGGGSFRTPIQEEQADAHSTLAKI

B2: (GITR-FAP) [8A06] 4+2 construct with charged residues (bispecific antibody, V domains shown)
VH 1: QVQLVQSGAEVKKPGSSVKVSCKASGGTFSSYAISWVRQAPGQGLEWMGGIIPIFGTANYAQKFQGRVTITADKSTSTAYMELSSLRSEDTAVYYCARGYYAIDYWGQGTTVTVSS
VL 1: SSELTQDPAVSVALGQTVRITCQGDSLRSYYASWYQQKPGQAPVLVIYGKNNRPSGIPDRFSGSSSGNTASLTITGAQAEDEADYYCNSPQTSGSAVFGGGTKLTVL
VH 2: EVQLLESGGGLVQPGGSLRLSCAASGFTFSSHAMSWVRQAPGKGLEWVSAIWASGEQYYADSVKGRFTISRDNSKNTLYLQMNSLRAEDTAVYYCAKGWLGNFDYWGQGTLVTVSS
VL 2: EIVLTQSPGTLSLSPGERATLSCRASQSVSRSYLAWYQQKPGQAPRLLIIGASTRATGIPDRFSGSGSGTDFTLTISRLEPEDFAVYYCQQGQVIPPTFGQGTKVEIK
notes: human IgG1 P329G LALA; also called 4+2 CR
- EC50 [1]: 2.06 nM

B5: 25G7/FAP P329GLALA IgG1 2+2 (bispecific antibody)
heavy: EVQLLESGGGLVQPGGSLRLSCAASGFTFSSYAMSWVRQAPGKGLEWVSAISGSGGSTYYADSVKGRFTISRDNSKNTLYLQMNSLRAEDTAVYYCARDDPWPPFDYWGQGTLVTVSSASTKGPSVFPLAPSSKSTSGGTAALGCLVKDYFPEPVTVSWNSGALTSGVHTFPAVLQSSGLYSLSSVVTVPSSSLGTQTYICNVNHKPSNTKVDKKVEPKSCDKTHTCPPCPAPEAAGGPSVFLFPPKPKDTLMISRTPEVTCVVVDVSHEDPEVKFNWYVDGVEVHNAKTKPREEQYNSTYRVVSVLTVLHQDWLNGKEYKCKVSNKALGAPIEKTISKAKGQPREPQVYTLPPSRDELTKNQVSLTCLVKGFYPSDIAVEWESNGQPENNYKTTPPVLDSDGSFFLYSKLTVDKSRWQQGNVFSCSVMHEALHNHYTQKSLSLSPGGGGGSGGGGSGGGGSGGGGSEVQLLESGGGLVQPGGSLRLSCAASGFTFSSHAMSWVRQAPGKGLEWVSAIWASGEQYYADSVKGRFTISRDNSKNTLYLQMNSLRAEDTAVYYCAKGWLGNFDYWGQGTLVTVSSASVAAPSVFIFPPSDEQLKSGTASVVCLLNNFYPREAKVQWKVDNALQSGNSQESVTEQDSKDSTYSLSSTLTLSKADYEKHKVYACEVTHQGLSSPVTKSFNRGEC
light 1: SSELTQDPAVSVALGQTVRITCQGDSLRSYYASWYQQKPGQAPVLVIYGKNNRPSGIPDRFSGSSSGNTASLTITGAQAEDEADYYCNSLDRRGMWVFGGGTKLTVLGQPKAAPSVTLFPPSSEELQANKATLVCLISDFYPGAVTVAWKADSSPVKAGVETTTPSKQSNNKYAASSYLSLTPEQWKSHRSYSCQVTHEGSTVEKTVAPTECS
light 2: EIVLTQSPGTLSLSPGERATLSCRASQSVSRSYLAWYQQKPGQAPRLLIIGASTRATGIPDRFSGSGSGTDFTLTISRLEPEDFAVYYCQQGQVIPPTFGQGTKVEIKSSASTKGPSVFPLAPSSKSTSGGTAALGCLVKDYFPEPVTVSWNSGALTSGVHTFPAVLQSSGLYSLSSVVTVPSSSLGTQTYICNVNHKPSNTKVDKKVEPKSCD
- EC50 of NFκB/luciferase activation, 4-1BB reporter HeLa with NIH/3T3-huFAP clone 19 [9]: 0.05 nM

B7: 11D5/FAP P329GLALA IgG1 2+2 (bispecific antibody)
heavy: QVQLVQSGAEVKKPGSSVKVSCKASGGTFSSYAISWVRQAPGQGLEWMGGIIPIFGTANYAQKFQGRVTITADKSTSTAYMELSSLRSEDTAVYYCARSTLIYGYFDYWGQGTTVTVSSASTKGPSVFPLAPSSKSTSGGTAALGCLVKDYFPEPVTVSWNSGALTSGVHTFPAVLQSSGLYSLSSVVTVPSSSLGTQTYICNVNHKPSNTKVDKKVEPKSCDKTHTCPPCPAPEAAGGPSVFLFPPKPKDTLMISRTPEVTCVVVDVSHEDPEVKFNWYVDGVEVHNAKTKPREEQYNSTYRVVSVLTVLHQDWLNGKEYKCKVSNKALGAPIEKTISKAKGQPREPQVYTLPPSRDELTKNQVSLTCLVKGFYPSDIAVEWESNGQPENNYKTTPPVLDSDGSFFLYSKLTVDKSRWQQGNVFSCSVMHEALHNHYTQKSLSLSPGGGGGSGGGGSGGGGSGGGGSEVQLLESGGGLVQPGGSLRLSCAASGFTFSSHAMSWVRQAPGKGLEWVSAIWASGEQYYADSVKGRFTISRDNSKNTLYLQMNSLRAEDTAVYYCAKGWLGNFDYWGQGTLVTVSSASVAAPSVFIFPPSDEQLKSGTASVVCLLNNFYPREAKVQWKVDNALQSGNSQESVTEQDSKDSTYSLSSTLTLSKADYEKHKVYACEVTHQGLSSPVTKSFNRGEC
light 1: not shown
light 2: EIVLTQSPGTLSLSPGERATLSCRASQSVSRSYLAWYQQKPGQAPRLLIIGASTRATGIPDRFSGSGSGTDFTLTISRLEPEDFAVYYCQQGQVIPPTFGQGTKVEIKSSASTKGPSVFPLAPSSKSTSGGTAALGCLVKDYFPEPVTVSWNSGALTSGVHTFPAVLQSSGLYSLSSVVTVPSSSLGTQTYICNVNHKPSNTKVDKKVEPKSCD
- EC50 of NFκB/luciferase activation, 4-1BB reporter HeLa with NIH/3T3-huFAP clone 19 [9]: 0.05 nM

B8: 4-1BB(25G7)/FAP(4B9) 2+1 (bispecific antibody, human IgG1, lambda, L234A L235A)
heavy 1: not shown
heavy 2: not shown
light: SSELTQDPAVSVALGQTVRITCQGDSLRSYYASWYQQKPGQAPVLVIYGKNNRPSGIPDRFSGSSSGNTASLTITGAQAEDEADYYCNSLDRRGMWVFGGGTKLTVLGQPKAAPSVTLFPPSSEELQANKATLVCLISDFYPGAVTVAWKADSSPVKAGVETTTPSKQSNNKYAASSYLSLTPEQWKSHRSYSCQVTHEGSTVEKTVAPTECS
- EC50 of NFκB/luciferase activation, 4-1BB reporter HeLa with NIH/3T3-huFAP clone 19 [9]: 0.1 nM
- EC50 of NFκB/luciferase activation, 4-1BB reporter HeLa with WM-266-4 [9]: 0.3 nM

B9: 4-1BB(25G7)/FAP(4B9) 4+1 (bispecific antibody, human IgG1, lambda, L234A L235A)
heavy 1: not shown
heavy 2: not shown
light: SSELTQDPAVSVALGQTVRITCQGDSLRSYYASWYQQKPGQAPVLVIYGKNNRPSGIPDRFSGSSSGNTASLTITGAQAEDEADYYCNSLDRRGMWVFGGGTKLTVLGQPKAAPSVTLFPPSSEELQANKATLVCLISDFYPGAVTVAWKADSSPVKAGVETTTPSKQSNNKYAASSYLSLTPEQWKSHRSYSCQVTHEGSTVEKTVAPTECS
- EC50 of NFκB/luciferase activation, 4-1BB reporter HeLa with NIH/3T3-huFAP clone 19 [9]: 0.04 nM
- EC50 of NFκB/luciferase activation, 4-1BB reporter HeLa with WM-266-4 [9]: 0.2 nM

B10: 1G4/FAP P329GLALA IgG1 2+2 (bispecific antibody)
heavy: not shown
light 1: not shown
light 2: EIVLTQSPGTLSLSPGERATLSCRASQSVSRSYLAWYQQKPGQAPRLLIIGASTRATGIPDRFSGSGSGTDFTLTISRLEPEDFAVYYCQQGQVIPPTFGQGTKVEIKSSASTKGPSVFPLAPSSKSTSGGTAALGCLVKDYFPEPVTVSWNSGALTSGVHTFPAVLQSSGLYSLSSVVTVPSSSLGTQTYICNVNHKPSNTKVDKKVEPKSCD
notes: also called 1G4 FAP 2+2
- EC50 [11]: 9.37 nM

Next, values leading:

- EC50 [1]: 1.92 nM
B1: (GITR-DP47) [8A06] 4+1 construct with charged residues (bispecific antibody, V domains shown)
VH: QVQLVQSGAEVKKPGSSVKVSCKASGGTFSSYAISWVRQAPGQGLEWMGGIIPIFGTANYAQKFQGRVTITADKSTSTAYMELSSLRSEDTAVYYCARGYYAIDYWGQGTTVTVSS
VL: SSELTQDPAVSVALGQTVRITCQGDSLRSYYASWYQQKPGQAPVLVIYGKNNRPSGIPDRFSGSSSGNTASLTITGAQAEDEADYYCNSPQTSGSAVFGGGTKLTVL

- Kd [2]: 24 nM
- koff [2]: 0.00077 s⁻¹
- kon [2]: 31000 M⁻¹ s⁻¹
- binding result [3]: no binding
- EC50 [4]: 1.04 nM
- EC50 of increase of IFNγ secretion in activated CD8+ T cells (surface-immobilized IgG) [5]: 0.06 nM
- Kd [6]: 36 nM
- koff [6]: 0.0012 s⁻¹
- kon [6]: 32000 M⁻¹ s⁻¹
- EC50 [7]: 1.46 nM
- EC50 [8]: 0.97 nM
B3: 11D5 P329GLALA IgG1 (antibody, V domains shown)
VH: QVQLVQSGAEVKKPGSSVKVSCKASGGTFSSYAISWVRQAPGQGLEWMGGIIPIFGTANYAQKFQGRVTITADKSTSTAYMELSSLRSEDTAVYYCARSTLIYGYFDYWGQGTTVTVSS
VL: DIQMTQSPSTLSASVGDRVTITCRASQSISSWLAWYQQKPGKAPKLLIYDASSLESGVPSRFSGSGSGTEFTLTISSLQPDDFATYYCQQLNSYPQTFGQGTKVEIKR
notes: anti-4-1BB; also called 11D5 IgG

- EC50 of NFκB/luciferase activation, 4-1BB reporter HeLa with NIH/3T3-huFAP clone 19 [9]: 3.2 nM
B4: 25G7/FAP P329GLALA IgG1 1+1 (bispecific antibody)
heavy 1: not shown
light 1: SSELTQDPAVSVALGQTVRITCQGDSLRSYYASWYQQKPGQAPVLVIYGKNNRPSGIPDRFSGSSSGNTASLTITGAQAEDEADYYCNSLDRRGMWVFGGGTKLTVLGQPKAAPSVTLFPPSSEELQANKATLVCLISDFYPGAVTVAWKADSSPVKAGVETTTPSKQSNNKYAASSYLSLTPEQWKSHRSYSCQVTHEGSTVEKTVAPTECS
heavy 2: EVQLLESGGGLVQPGGSLRLSCAASGFTFSSHAMSWVRQAPGKGLEWVSAIWASGEQYYADSVKGRFTISRDNSKNTLYLQMNSLRAEDTAVYYCAKGWLGNFDYWGQGTLVTVSSASVAAPSVFIFPPSDEQLKSGTASVVCLLNNFYPREAKVQWKVDNALQSGNSQESVTEQDSKDSTYSLSSTLTLSKADYEKHKVYACEVTHQGLSSPVTKSFNRGECDKTHTCPPCPAPEAAGGPSVFLFPPKPKDTLMISRTPEVTCVVVDVSHEDPEVKFNWYVDGVEVHNAKTKPREEQYNSTYRVVSVLTVLHQDWLNGKEYKCKVSNKALGAPIEKTISKAKGQPREPQVCTLPPSRDELTKNQVSLSCAVKGFYPSDIAVEWESNGQPENNYKTTPPVLDSDGSFFLVSKLTVDKSRWQQGNVFSCSVMHEALHNHYTQKSLSLSPGK
light 2: EIVLTQSPGTLSLSPGERATLSCRASQSVSRSYLAWYQQKPGQAPRLLIIGASTRATGIPDRFSGSGSGTDFTLTISRLEPEDFAVYYCQQGQVIPPTFGQGTKVEIKSSASTKGPSVFPLAPSSKSTSGGTAALGCLVKDYFPEPVTVSWNSGALTSGVHTFPAVLQSSGLYSLSSVVTVPSSSLGTQTYICNVNHKPSNTKVDKKVEPKSCD

- EC50 [10]: 1.31 nM
B6: 49B4/FAP P329GLALA IgG1 2+2 (bispecific antibody)
heavy: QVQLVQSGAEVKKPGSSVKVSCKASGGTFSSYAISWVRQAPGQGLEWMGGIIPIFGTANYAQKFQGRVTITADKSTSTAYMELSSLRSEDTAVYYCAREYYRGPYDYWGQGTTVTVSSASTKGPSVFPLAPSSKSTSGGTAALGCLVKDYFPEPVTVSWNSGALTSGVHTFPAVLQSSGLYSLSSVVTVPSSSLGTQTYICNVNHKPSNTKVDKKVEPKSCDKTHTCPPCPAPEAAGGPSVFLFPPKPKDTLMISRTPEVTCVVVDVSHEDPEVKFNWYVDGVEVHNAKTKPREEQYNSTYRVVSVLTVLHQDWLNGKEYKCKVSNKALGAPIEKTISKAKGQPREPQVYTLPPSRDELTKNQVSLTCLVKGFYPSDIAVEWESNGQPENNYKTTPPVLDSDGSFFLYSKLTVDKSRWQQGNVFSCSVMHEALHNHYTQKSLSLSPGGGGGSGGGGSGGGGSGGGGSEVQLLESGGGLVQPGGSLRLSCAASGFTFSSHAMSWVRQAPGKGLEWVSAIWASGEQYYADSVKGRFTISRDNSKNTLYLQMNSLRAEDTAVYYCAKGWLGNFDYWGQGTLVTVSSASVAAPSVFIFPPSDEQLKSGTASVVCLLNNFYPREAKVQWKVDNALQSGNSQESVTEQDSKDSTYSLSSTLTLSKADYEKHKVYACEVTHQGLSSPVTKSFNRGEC
light 1: DIQMTQSPSTLSASVGDRVTITCRASQSISSWLAWYQQKPGKAPKLLIYDASSLESGVPSRFSGSGSGTEFTLTISSLQPDDFATYYCQQYSSQPYTFGQGTKVEIKRTVAAPSVFIFPPSDEQLKSGTASVVCLLNNFYPREAKVQWKVDNALQSGNSQESVTEQDSKDSTYSLSSTLTLSKADYEKHKVYACEVTHQGLSSPVTKSFNRGEC
light 2: EIVLTQSPGTLSLSPGERATLSCRASQSVSRSYLAWYQQKPGQAPRLLIIGASTRATGIPDRFSGSGSGTDFTLTISRLEPEDFAVYYCQQGQVIPPTFGQGTKVEIKSSASTKGPSVFPLAPSSKSTSGGTAALGCLVKDYFPEPVTVSWNSGALTSGVHTFPAVLQSSGLYSLSSVVTVPSSSLGTQTYICNVNHKPSNTKVDKKVEPKSCD
notes: also called 2+2 (49B4/28H1); bispecific bivalent 2+2 construct 49B4

- Kd [2]: 17 nM
- koff [2]: 0.00046 s⁻¹
- kon [2]: 27000 M⁻¹ s⁻¹
- binding result [3]: no binding
- EC50 [4]: 4.52 nM
- EC50 of increase of IFNγ secretion in activated CD8+ T cells (surface-immobilized IgG) [5]: 0.12 nM
- Kd [6]: 34 nM
- koff [6]: 0.00099 s⁻¹
- kon [6]: 29000 M⁻¹ s⁻¹
- EC50 [7]: 29 nM
- EC50 [8]: 6.68 nM
B11: 25G7 P329GLALA IgG1 (antibody, V domains shown)
VH: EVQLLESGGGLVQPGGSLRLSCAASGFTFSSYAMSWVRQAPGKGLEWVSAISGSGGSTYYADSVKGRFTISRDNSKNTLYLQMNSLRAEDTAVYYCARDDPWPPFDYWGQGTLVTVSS
VL: SSELTQDPAVSVALGQTVRITCQGDSLRSYYASWYQQKPGQAPVLVIYGKNNRPSGIPDRFSGSSSGNTASLTITGAQAEDEADYYCNSLDRRGMWVFGGGTKLTVLG
notes: anti-4-1BB; also called 25G7 IgG
